These results are taken from patent publication US20210032339A1 (AMPHIVENA THERAPEUTICS, published 2021).

Several values for one entry are separate records, joined by “and”; a condition that tells them apart may be missing. Equal values may be shown once.

Assay [1] addresses T1, human CD33 (human, UniProt P20138 18-259). The experiment in a line: cell-based or functional assay.
The target of assay [2] is T2, human CD3 (human, UniProt P07766 23-207).
T2 construct: whole, on cells; Multi-chain complex on cells; also called hu CD3
T2 sequence (P07766 23-207): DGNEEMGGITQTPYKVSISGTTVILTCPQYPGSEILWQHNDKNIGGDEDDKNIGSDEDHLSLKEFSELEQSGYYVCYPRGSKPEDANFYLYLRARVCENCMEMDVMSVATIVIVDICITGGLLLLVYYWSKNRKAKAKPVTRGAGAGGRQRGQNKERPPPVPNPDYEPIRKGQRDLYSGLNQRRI
Nature of the assay: flow cytometry, T cells.

Assay [3] addresses T1, human CD33. Nature of the assay: flow cytometry, KG-1 cells. The procedure: (§1) Cells were incubated with 100 μL of serial dilutions of CD33/CD3 tandem diabodies. After washing three times with FACS buffer the cells were incubated with 0.1 mL of 10 μg/mL mouse monoclonal anti-His antibody in the same buffer for 45 min on ice. After a second washing cycle, the cells were incubated with 0.1 mL of 15 μg/mL FITC-conjugated goat anti-mouse IgG antibodies under the same conditions as before. As a control, cells were incubated with the anti-His IgG followed by the FITC-conjugated goat anti-mouse IgG antibodies without anti-CD33 tandem diabodies. […] The fluorescence of 1×10⁴ living cells was measured using a Beckman-Coulter FC500 MPL flow cytometer using the MXP software (Beckman-Coulter, Krefeld, Germany) or a Millipore Guava EasyCyte flow cytometer using the Incyte software (Merck Millipore, Schwalbach, Germany). Mean fluorescence intensities of the cell samples were calculated using CXP software (Beckman-Coulter, Krefeld, Germany) or Incyte software (Merck Millipore, Schwalbach, Germany). After subtracting the fluorescence intensity values of the cells stained with the secondary and tertiary reagents alone the values were used for calculation of the KD values with the equation for one-site binding (hyperbola) of the GraphPad Prism (version 6.00 for Windows, GraphPad Software, La Jolla Calif. USA). […]

In assay [4] the target is T1, human CD33. Nature of the assay: flow cytometry, HL-60 cells. The method, then:
as §1

Assay [5] has as its target T1, human CD33. Nature of the assay: flow cytometry, U-937 cells. The method, then: as §1
Assay [6] concerns the target T1, human CD33. The experiment in a line: flow cytometry, HL-60 cells. This is another data set of the same source.
The target of assay [7] is T2, human CD3. Nature of the assay: flow cytometry, human T-cells.
The target in assay [8] is T1, human CD33. The experiment in a line: cell-based or functional assay. This is another data set of the same source.
Assay [9] concerns the target T1, human CD33. Nature of the assay: cell-based or functional assay. This is another data set of the same source.
Assay [10] addresses T1, human CD33. Nature of the assay: cell-based or functional assay. The source holds these as a separate data set.
Assay [11] concerns the target T1, human CD33. Nature of the assay: cell-based or functional assay. The source holds these as a separate data set.

T1 sequence (P20138 18-259): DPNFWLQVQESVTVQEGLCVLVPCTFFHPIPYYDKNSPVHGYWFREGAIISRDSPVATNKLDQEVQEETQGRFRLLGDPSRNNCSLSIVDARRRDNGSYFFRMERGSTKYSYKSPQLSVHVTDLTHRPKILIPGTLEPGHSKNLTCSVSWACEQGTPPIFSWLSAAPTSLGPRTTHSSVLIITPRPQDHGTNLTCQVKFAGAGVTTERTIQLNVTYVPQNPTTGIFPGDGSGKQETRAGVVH

B1: CD33/CD3 tandem diabody 22 (bispecific antibody)
chain: DIQMTQSPSSLSASVGDRVTITCRSSTGAVTTSNYANWVQQKPGKAPKALIGGTNKRAPGVPSRFSGSLIGDKATLTISSLQPEDFATYYCALWYSNLWVFGQGTKVEIKGGSGGSQVQLVQSGAEVKKPGSSVKVSCKASGGTFSSYGISWVRQAPGQGLEWMGGIIPIFGSAHYAQKFQGRVTITADESTSTAYMELSSLRSEDTAVYYCAREYYYDSSEWAFDIWGQGTLVTVSSGGSGQSVLTQPPSASGTPGQRVTISCSGSSSNIGSNTVKWYQQLPGTAPKLLIYSNNQRSSGVPDRFSGSKSGTSASLAISGLQSEDEADYYCAAWDDSLNGYVFGGGTKLTVLGGSGGSEVQLVESGGGLVQPGGSLRLSCAASGFTFSTYAMNWVRQAPGKGLEWVGRIRSKYNNYATYYADSVKDRFTISRDDSKNSLYLQMNSLKTEDTAVYYCARHGNFGNSYVSYFAYWGQGTLVTVSSAAAGSHHHHHH
notes: Non-covalent homodimer; also called TandAb 22
B1: the “EC50 on HL-60 (cytotoxicity)” value in assay [1] stood at 3.2 pM. The Kd was 4100 pM in assay [2]; 2000 pM in assay [3]; 700 pM in [4]; 8600 pM in assay [5]; 700 pM in assay [6]; 4100 pM in assay [7].

B2: CD33/CD3 tandem diabody 23 (bispecific antibody)
chain: DIQMTQSPSSLSASVGDRVTITCRSSTGAVTTSNYANWVQQKPGKAPKGLIGGTNKRAPGVPSRFSGSLIGTDFTLTISSLQPEDFATYYCALWYSNLWVFGQGTKVEIKGGSGGSQVQLVQSGAEVKKPGSSVKVSCKASGGTFSSYGISWVRQAPGQGLEWMGGIIPIFGSAHYAQKFQGRVTITADESTSTAYMELSSLRSEDTAVYYCAREYYYDSSEWAFDIWGQGTLVTVSSGGSGQSVLTQPPSASGTPGQRVTISCSGSSSNIGSNTVKWYQQLPGTAPKLLIYSNNQRSSGVPDRFSGSKSGTSASLAISGLQSEDEADYYCAAWDDSLNGYVFGGGTKLTVLGGSGGSEVQLVESGGGLVQPGGSLRLSCAASGFTFSTYAMNWVRQAPGKGLEWVGRIRSKYNNYATYYADSVKDRFTISRDDSKNSLYLQMNSLKTEDTAVYYCARHGNFGNSYVSWFAYWGQGTLVTVSSAAAGSHHHHHH
notes: Non-covalent homodimer; also called TandAb 23
With B2, the “EC50 on HL-60 (cytotoxicity)” value in assay [1] is 2.8 pM. Also, the Kd in [2] amounted to 97200 pM; in assay [3] it was 1000 pM; in [4] it was 400 pM; in assay [5] it was 5100 pM; in [6] it was 400 pM; in assay [7], 97200 pM.

B3: CD33/CD3 tandem diabody 19 (bispecific antibody)
chain: DIQMTQSPSSLSASVGDRVTITCRSSTGAVTTSNYANWVQQKPGKAPKALIGGTNKRAPGVPSRFSGSLIGDKATLTISSLQPEDFATYYCALWYSNLWVFGQGTKVEIKGGSGGSQVQLVQSGAEVKKPGASVKVSCKASGYTFTSYYMHWVRQAPGQGLEWMGIINPSGGSTSYAQKFQGRVTMTRDTSTSTVYMELSSLRSEDTAVYYCARDVVPAAIDYYGMDVWGQGTTVTVSSGGSGQSVLTQPPSASGTPGQRVTISCSGSSSNIGSNTVNWYQQLPGTAPKLLIYSDNQRPSGVPDRFSGSKSGSSASLAISGLQSDDEADYYCATWDDSLNGAVFGGGTKLTVLGGSGGSEVQLVESGGGLVQPGGSLRLSCAASGFTFSTYAMNWVRQAPGKGLEWVGRIRSKYNNYATYYADSVKDRFTISRDDSKNSLYLQMNSLKTEDTAVYYCARHGNFGNSYVSYFAYWGQGTLVTVSSAAAGSHHHHHH
In the case of B3, in assay [8], the “lysis of KG-1 cells, IC50” value was ~5 pM.

B4: CD33/CD3 tandem diabody 12 (bispecific antibody)
chain: DIQMTQSPSSLSASVGDRVTITCRSSTGAVTTSNYANWVQQKPGKAPKALIGGTNKRAPGVPSRFSGSLIGDKATLTISSLQPEDFATYYCALWYSNLWVFGQGTKVEIKGGSGGSQVQLVQSGAEVKKPGASVKVSCKASGYTFTSYDINWVRQAPGQGLEWMGWMNPNSGNTGFAQKFQGRVTMTRDTSTSTVYMELSSLRSEDTAVYYCARDRAVTDYYYGMDVWGQGTLVTVSSGGSGQSVLTQPPSASGTPGQRVTISCSGSRSNIGSNTVNWYQQLPGTAPKLLIYGNNQRPSGVPDRFSGSKSGTSASLAISGLQSEDEADYYCATWDDSLIGWVFGGGTKLTVLGGSGGSEVQLVESGGGLVQPGGSLRLSCAASGFTFSTYAMNWVRQAPGKGLEWVGRIRSKYNNYATYYADSVKDRFTISRDDSKNSLYLQMNSLKTEDTAVYYCARHGNFGNSYVSYFAYWGQGTLVTVSSAAAGSHHHHHH
B4: the “lysis of KG-1 cells, IC50” value in [8] was ~0.01 pM. In assay [9], the “EC50 mean, cytotoxicity on BV-173” value came out at 1.4 pM; the “EC50 mean, cytotoxicity on CHO-CD33” value came out at 11.8 pM; the “EC50 mean, cytotoxicity on HL-60” value is 1.4 pM; the “EC50 mean, cytotoxicity on K562” value was 4.5 pM. Besides, in [9], the “EC50 mean, cytotoxicity on KASUMI-1” value was 1.3 pM; the “EC50 mean, cytotoxicity on KG-1” value amounted to 1 pM; the “EC50 mean, cytotoxicity on RPMI-8226” value was determined as 14 pM; the “EC50 mean, cytotoxicity on THP-1” value was 1.9 pM. Besides, in assay [9], the “EC50 mean, cytotoxicity on U-937” value is 0.9 pM.

B5: CD33/CD3 tandem diabody 14 (bispecific antibody)
chain: DIQMTQSPSSLSASVGDRVTITCRSSTGAVTTSNYANWVQQKPGKAPKALIGGTNKRAPGVPSRFSGSLIGDKATLTISSLQPEDFATYYCALWYSNLWVFGQGTKVEIKGGSGGSQVQLVQSGAEVKKPGASVKVSCKASGYTFTSYDINWVRQAPGQGLEWMGWMNPNSGNTGFAQKFQGRVTMTRDTSTSTVYMELSSLRSEDTAVYYCARDRANTDFSYGMDVWGQGTLVTVSSGGSGQSVLTQPPSASGTPGQRVTISCSGSRSNIGSNTVNWYQQLPGTAPKLLIYGNNQRPSGVPDRFSGSKSGSSASLAISGLQSEDEADYYCATWDDSLIGWVFGGGTKLTVLGGSGGSEVQLVESGGGLVQPGGSLRLSCAASGFTFSTYAMNWVRQAPGKGLEWVGRIRSKYNNYATYYADSVKDRFTISRDDSKNSLYLQMNSLKTEDTAVYYCARHGNFGNSYVSYFAYWGQGTLVTVSSAAAGSHHHHHH
In the case of B5, in [1], the “EC50 on HL-60 (cytotoxicity)” value is 1.6 pM. In assay [10], the “EC50, cytotoxicity on HL-60” value is 1.6 pM and 168 pg/mL; the “EC50, cytotoxicity on KG-1” value was 2.6 pM and 273 pg/mL; the “EC50, cytotoxicity on U-937” value is 3.6 pM and 378 pg/mL; the “EC50, cytotoxicity, mean of HL-60, U-937, KG-1” value was 2.6 pM and 273 pg/mL.

B6: CD33/CD3 tandem diabody 16 (bispecific antibody)
chain: DIQMTQSPSSLSASVGDRVTITCRSSTGAVTTSNYANWVQQKPGKAPKALIGGTNKRAPGVPSRFSGSLIGDKATLTISSLQPEDFATYYCALWYSNLWVFGQGTKVEIKGGSGGSQVQLVQSGAEVKKPGASVKVSCKASGYTFTSYDINWVRQAPGQGLEWMGWMNPNSGNTGFAQKFQGRVTMTRDTSTSTVYMELSSLRSEDTAVYYCARDRANTDYSLGMDVWGQGTLVTVSSGGSGQSVLTQPPSASGTPGQRVTISCSGSRSNIGSNTVNWYQQLPGTAPKLLIYGNNQRPSGVPDRFSGSKSGTSASLAISGLQSEDEADYYCATWDDSLIGWVFGGGTKLTVLGGSGGSEVQLVESGGGLVQPGGSLRLSCAASGFTFSTYAMNWVRQAPGKGLEWVGRIRSKYNNYATYYADSVKDRFTISRDDSKNSLYLQMNSLKTEDTAVYYCARHGNFGNSYVSYFAYWGQGTLVTVSSAAAGSHHHHHH
As for B6, in assay [8], the “lysis of KG-1 cells, IC50” value is ~0.5 pM and 5 pM. In addition, in assay [9], the “EC50 mean, cytotoxicity on BV-173” value stood at 3.2 pM; the “EC50 mean, cytotoxicity on CHO-CD33” value turned out to be 24 pM; the “EC50 mean, cytotoxicity on HL-60” value was 1.6 pM; the “EC50 mean, cytotoxicity on K562” value is 4.8 pM. In addition, in [9], the “EC50 mean, cytotoxicity on KASUMI-1” value was 2.4 pM; the “EC50 mean, cytotoxicity on KG-1” value was determined as 1.9 pM; the “EC50 mean, cytotoxicity on RPMI-8226” value amounted to 2.8 pM; the “EC50 mean, cytotoxicity on THP-1” value was 6 pM. Further, the “EC50 mean, cytotoxicity on U-937” value in assay [9] was 1.3 pM. In assay [11], the “EC50, calcein-release cytotoxicity on HL-60, 30 min” value is 4.8 pM; the “EC50, calcein-release cytotoxicity on HL-60, 60 min” value was 2.5 pM; the “EC50, calcein-release cytotoxicity on HL-60, 120 min” value is 1.6 pM; the “EC50, calcein-release cytotoxicity on HL-60, 180 min” value was 1.6 pM. Also, in [11], the “EC50, calcein-release cytotoxicity on HL-60, 240 min” value is 1.5 pM and the “EC50, calcein-release cytotoxicity on HL-60, 300 min” value was 1.6 pM.
